Test results reported in US20230212268A1 (UNM RAINFOREST INNOVATIONS, published 2023).

Assays:
[1] = biological target: T1, recombinant MARV glycoprotein (MARV (marburgvirus, Ravn), UniProt Q1PDC7 19-648); experiment: ELISA dose-response fit, reference scFv22-1
T1 sequence: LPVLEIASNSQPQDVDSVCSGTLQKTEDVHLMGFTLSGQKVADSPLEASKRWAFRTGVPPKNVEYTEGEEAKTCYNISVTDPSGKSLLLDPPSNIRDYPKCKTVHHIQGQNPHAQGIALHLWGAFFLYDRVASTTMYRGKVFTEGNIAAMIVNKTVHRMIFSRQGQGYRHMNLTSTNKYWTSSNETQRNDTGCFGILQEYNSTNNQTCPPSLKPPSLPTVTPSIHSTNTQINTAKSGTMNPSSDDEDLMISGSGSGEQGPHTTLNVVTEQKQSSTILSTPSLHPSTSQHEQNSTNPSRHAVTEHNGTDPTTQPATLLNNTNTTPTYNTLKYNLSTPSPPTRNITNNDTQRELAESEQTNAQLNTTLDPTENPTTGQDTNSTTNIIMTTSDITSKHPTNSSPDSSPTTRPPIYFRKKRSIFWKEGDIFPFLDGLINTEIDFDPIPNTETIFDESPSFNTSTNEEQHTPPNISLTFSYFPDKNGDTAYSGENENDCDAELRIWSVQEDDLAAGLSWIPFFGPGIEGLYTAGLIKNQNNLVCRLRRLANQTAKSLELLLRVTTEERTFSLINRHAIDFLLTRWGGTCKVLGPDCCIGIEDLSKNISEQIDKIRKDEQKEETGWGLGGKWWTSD

[2] = biological target: recombinant BDBV glycoprotein (BDBV (Bundibugyo ebolavirus)); experiment: ELISA dose response, GP coated
[3] = biological target: T2, recombinant EBOV glycoprotein (EBOV (Zaire ebolavirus), UniProt Q05320 33-650)
T2 sequence: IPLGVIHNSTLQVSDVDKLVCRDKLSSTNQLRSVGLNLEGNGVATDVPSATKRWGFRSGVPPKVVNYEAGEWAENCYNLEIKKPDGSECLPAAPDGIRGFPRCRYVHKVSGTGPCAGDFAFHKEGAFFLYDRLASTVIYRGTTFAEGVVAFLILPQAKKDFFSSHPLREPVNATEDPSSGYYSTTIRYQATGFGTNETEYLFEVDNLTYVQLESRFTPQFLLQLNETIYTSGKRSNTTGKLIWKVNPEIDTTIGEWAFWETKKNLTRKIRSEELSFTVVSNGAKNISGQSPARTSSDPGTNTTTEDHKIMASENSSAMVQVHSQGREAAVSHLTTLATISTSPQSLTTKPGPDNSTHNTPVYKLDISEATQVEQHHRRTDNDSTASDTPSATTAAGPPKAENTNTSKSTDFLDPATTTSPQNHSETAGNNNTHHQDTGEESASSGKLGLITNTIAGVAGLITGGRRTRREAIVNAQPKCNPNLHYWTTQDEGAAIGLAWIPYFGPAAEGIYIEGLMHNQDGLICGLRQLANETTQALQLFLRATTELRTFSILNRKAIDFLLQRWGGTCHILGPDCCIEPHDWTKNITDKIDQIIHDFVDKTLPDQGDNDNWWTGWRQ

B1: EbovGPscFv4-2 (scFv)
scFv: MAWSHPQFEKTGSGGAELVKSGASVKLSCTASGFNIKDDYMHWVKQRPEQGLEWIGWIDPENGDTEYASKFQGKATITADTSSNTAYLQLSSLTSEDTAVYYCTTYYYGSAWFAYWGQGTLVTVSAGGGGSGGGGSGGGGSGGGGSASLSVSVGETVTITCRASGNIHNYLAWYQQKQGKSPQLLVYNAKTLADGVPSRFSGSGSGTQYSLKINNLQPEDFGSYYCQHFWSTPYTFGGGTKLEIKRADAAPTVSIFPPSSEQLTSGGASVVCFLNNFTHCQELQQDECS
fold affinity against scFv22-1 [1]: ~2 fold | EC50 [2]: < 9 mg/L | EC50 [3]: 4 mg/L
